Assay results as given in article PMC6294515, “Structural basis of the specific interaction of SMRT corepressor with histone deacetylase 4” (Nucleic Acids Research, 2018).

What was measured:
HDAC4c D759Y = settings: HDAC4c mutant versus wild-type; cited from earlier work
Excerpt: Next, we analyzed the mutational effects of SM1 mutants by OPTHiS screening (Figure 5A). […] In the peptide-complex structures, G+1, S+2 and T+4 residues on both peptides interact, directly or through water molecules, with residues on the cleft wall of the structural zinc-binding subdomain (Figure 3E). Mutations in this peptide region (G+1R, S+2D and T+4N/T+4A) altered the binding affin ... || Among the seven HDACs whose catalytic domain structures have been reported, HDAC4c is unique in that it has an open conformation when it binds to non-peptide molecules. In agreement with this, mutations at the ^+1GSI^+3 residues of two motifs and R+9 residue of the SM1 lead to a loss of its binding activity to HDAC4c/-5c (Figures 1 and 5). The class IIa HDAC-specific residues (D759, H842, and F871), which are located at the cleft to and entrance to the catalytic zinc-binding site, interact directly or indirectly with these residues of bound peptides (Figure 3D and E). Further, HDAC4c mutants o ...

HDAC4 = settings: cited from earlier work
Excerpt: In contrast to other HDACs, class IIa HDACs have low deacetylase activity ([33]). However, their HDAC domains are directly involved in the transcriptional repression of several genes by forming a supra-complex with the NCoR/SMRT-HDAC3 complex ([16],[17]).

HDAC5c = assay: Interaction with HDAC5c (yeast two-hybrid, GST pull-down, BiFC); settings: for interaction with HDAC5c, domain mapping: yeast two-hybrid only, strain EGY48, LexA-fused HDAC5c and SRD3c deletion constructs, liquid β-galactosidase assay
HDAC4c = assay: Interaction with HDAC4c (yeast two-hybrid, GST pull-down, BiFC); settings: for interaction with HDAC4c, domain mapping: yeast two-hybrid only, strain EGY48, LexA-fused HDAC4c and SRD3c deletion constructs, liquid β-galactosidase assay

## GSITQGIPR [SM1, conserved GSI motif 1361-1369 of SRD3c, …]
HDAC4c D759Y
  binding affinity to HDAC4c D759Y: abrogated interactions

## SMRT: silencing mediator for retinoid and thyroid receptor, general corepressor
HDAC4
  change in deacetylase activity of HDAC4 in the presence of SMRT: lack of noticeable changes in the deacetylase activity of HDAC4

B1: SRD3n: N-terminal region of SRD3 (R1128–E1289) (protein, UniProt Q9Y618 1128-1289, looked up, fragment)
chain: GMSVQLHVPYSEHAKAPVGPVTMGLPLPMDPKKLAPFSGVKQEQLSPRGQAGPPESLGVPTAQEASVLRGTALGSVPGGSITKGIPSTRVPSDSAITYRGSITHGTPADVLYKGTITRIIGEDSPSRLDRGREDSLPKGHVIYEGKKGHVLSYEGGMSVTQC
HDAC5c; yeast two-hybrid (β-galactosidase), in vitro GST pull-down, BiFC in HEK293 cells, result in words
  binding to HDAC5c: marginal interaction
HDAC4c; yeast two-hybrid (β-galactosidase), GST pull-down, BiFC in HEK293 cells, result in words
  binding to HDAC4c: marginal interaction

B2: I-A: SRD3c deletion construct K1316–G1390 (protein, UniProt Q9Y618 1316-1390, looked up, fragment)
chain: GRVGRAISSASIEGLMGRAIPPERHSPHHLKEQHHIRGSITQGIPRSYVEAQEDYLRREAKLLKREGTPPPPPPS
HDAC5c
  interaction with HDAC5c, domain mapping: independently interacted with HDAC4c/-5c
HDAC4c
  interaction with HDAC4c, domain mapping: independently interacted with HDAC4c/-5c

B3: II: SRD3c deletion construct P1396–S1515 (protein, UniProt Q9Y618 1396-1515, looked up, fragment)
chain: AYKTQALGPLKLKPAHEGLVATVKEAGRSIHEIPREELRHTPELPLAPRPLKEGSITQGTPLKYDTGASTTGSKKHDVRSLIGSPGRTFPPVHPLDVMADARALERACYEESLKSRPGTA
HDAC5c
  interaction with HDAC5c, domain mapping: independently interacted with HDAC4c/-5c, although the binding strength of region II was relatively weaker than that of region I-A
HDAC4c
  interaction with HDAC4c, domain mapping: independently interacted with HDAC4c/-5c, although the binding strength of region II was relatively weaker than that of region I-A
